Assay: soluble on expression in E. coli; label from the status in PepcDB or PDB records

Sequence | soluble on expression in E. coli
MSLNARSYLEQQLTGQNANAANALALAITQSQADKAMAETLINATFDQGYFHHIRWQGADGKVRVDRVNEAVFPAAPGWFRALLPLSPQPGSALVTAGWMQAGEIRVEAALGYAYESLWRGALQTMLWLLGTGLLAGLLGSIDIFKLRRDLQRVVNQARAISEHRFQRMTEPKVPELARVVGAMNQMVERLQSFLGEQSEEVEQLRRERHTDPVTGLPNREALEQAVSSTLAEEDDVRGCLLLLRLAGLAELNQRLGGERADALLVRLAADLEDLAARRKGWMAARLRGADFAVFCPELDMDGGRQLAETLCEQLALYRQMGLSDRDGIGHIGVCGIVQGDGLASLLARASQALAEAEAAGDNQWRVDDGAGPDVGSEWDWRELIEAACREHSLRLRWFPVRDAARGILWQEGMLYRPPMDGLPAINAMRLVSHSLRLGLSHLADLEALRLALADAPGAALAVNLSPASLAARGFQWQVTEMLAGSRATVSFEFDEAGLDEHWAAFLAFGEAVKGAGHRLAVEIRGHRLELVARLNQAGIDYLVLDGALTRGIHRDEGRKVLVKGVQRMTSLMGARLIAKGVASEEDARLLLELRVDGLTGPAEGHHHHHH | not soluble
MSLNDDYPVVLAAPTGRASKRLQESTGLEAMTIHRLIGWNQDTKPEDILENEINARLIIIDEMSMVDTWLFHQFLSAVPLDAQLIFVGDEDQLPSVGPGQVFKDLIESKAIPRVNLTEVYRQQDGSSIIELAHRMKLGQKIDITQRFHDRSFINCQANQIPTVVEKVVTSAVNKGYTMADIQVLAPMYKGNAGIKRLNQVLQDILNPKKKDTREIEFGDVVFRKGDKVLQLVNRPNDNIFNGDIGVIVGIFWAKENALNKDVLVVDFEGNEITFTKQDMMELTHAYCTSIHKSQGSEFPIVIMPIVKQYFRMLQRPILYTGLTRAKTSLVLLGDPEAFDIGLKTNGQARLTQLCTLLKNYFNSEGHHHHHH | not soluble
MSLNDRNASKMLSTYNVAYWGGNYYDVNELGHISVCPDPDIREARVDLAQLVKKMQLEQGQRLPALFCFPQILQHRLRSINAAFKRARESFGYEGGYFLVYPIKVNQHRRVIESLVNSGEPLGLEAGSKAEMMAVLAHAGMTRSVIVCNGYKDREYIRLALIGEKLGHKVYLVIEKMSEIKMVLEEAERLNVVPRLGVRARLASQGSGKWQASGGEKSKFGLSATQVLQLVDMLREANSLESLQLLHFHLGSQLSNIRDISTGVRESARFYVELHKLGVNIQCFDVGGGLGVDYEGTRSQSDCSVNYGLNEYANNVIWGIGDACNEHGLPHPTVITESGRAVTAHHTVLVSNVIGVERNEFCEPQPPEAGAPRALESLWDTWQEMQEPENRRSLREWLHDSQMDLHDVHTQYAHGMLDLTHRAWAEQLYLSICNEIQKQLDPSNRAHRPIIDELQERMADKLYVNFSLFQSMPDAWGIDQLFPVLPLEGLDKPPERRAVLLDITCDSDGTIDHYIDGDGVATTMPMPPYDPENPPLLGFFMVGAYQEILGNMHNLFGDTAAVDVYVFPDGTVEVEQTDEGDTVADMLEYVQLNPEKLLEHFRGQVKETDLDTELQAQFLEEFEAGLYGYTYLEDEGHHHHHH | soluble
MSLNGPLKIGYYKIGAAYRDGKGYDVDMVRELARRLGCPIANETELPRLRALKMLETGQIDVSASTLATPDRLQYAWIYQYNHAKNMVLLNPAIQARTLATLLEDPALRWGAIRGYHHGPSQDKLLEELNARHKVVIANDEDDLYKMLGNGVVTAVFAQPFSYGRWLRELPNPNQIVVLDLYPETDMVASGLALSKARFSREAAEKWHQELLKMYQDGSLYDIMRRYLNEGHHHHHH | not soluble
MSLNIQAIDTRHGTANQHSFSNGNCLPYTGVPFGMNFYAPQTTDQKGSWWFHPEDRTFQGYRVTHQPSPWMGDFSHLLMTPVSGSLSELSLFHAQSSYRPEESLFSPVEINLTQLRYQITSQLIPSMYGGILTIDYQQKDNHLLLTLPGRYQVKQLDDHQVAVKVINYSGCEDPDFSFYFVLHFEQPLTKWFAPSSGEDGKILLSFGNIAQQVVHFSSSFISEKQAQLNLAREISLRSTEMLQQGIADWHNYFDRLKVTHENPEHTKTFYHTLYRTFLFPQTFYELDENQQPIHYDTFSQTVRPGVLYTNNGFWDTYKTVYPLFSLIAQEKYEEMLEGFLNSYNETGFLPKWLSPDERGLMPGTLIDAVIADAAVKKIRPDLMPQFLEAMKKGATQQSERENYGRQGTLDYLKYGYVPSTYHESVNHTLDYAYSDFCISQVAKTLNDSETATFYRQQALNYQQLFNPETGFMQAKDTEGNFRPDFLDIRWGKDYAEGSAWQSSFAVYQDFAGLIKLYGSELAFEKKLIQLCNQAPNFNVEGYGFEIHEMSEMAAIDFGQLAISNQPSFHYPFLFSYIGKPEMAQPLLKQLMQTFDASPTGYPGDEDNGSMSAWYIFNSLGFYPVTPGTGEYVIGMPLVQTAEVKLSNGKQLTIQTSPNKVQQQFIHEIQLNQEKHTAPYFTHQELLNGGTLDYQLGIVPNPQNTAERPFSLSTEKEGGSHHHHHH | soluble
MSLNKEPDPPLAESLRPQHIDEVIGQSHLLGEGKPLRLCFMGSKLHSMILWGPPGVGKTTIARLTAQAFDCEWIALSAVFSGVKDIRAAVEKAQEYLIHDKQTILFIDEIHRFNKAQQDALLPYTESGLITFIGATTENPSFEVNSALLSRAQVYVLKPLSEQELKLLFLRAHQRALSSLQFTEEAVDFLISCADGDARRLLNLLEQTKTACLTIKTAVVDVELLHNVIVQNSRRFDKGGEAFYDQISALHKSVRGSNPDAALYWLCRMLDGGVDPYYLARRIIRMSWEDIGLADPKAIQIANDAAATYERLGSPEGELALAQAVIYLSVAAKSNAGYVAFNQAMEFIKRDKSREVPIHLRNAPTQLMKKLGYGHEYRYAHDEPHGYAAGECYLPEGMPEVNWYNPVQRGLETKIAEKLAFLRQLDKDVKKEGHHHHHH | soluble
MSLNKKDVIRTLERIAIYMELKGENPFKISAYRKAALALEQDERTLDEIEDPATLKGIGKGTAEVILDLKETGESSLMHELKESVPAGLIPLLQLPSLGGKKIAKLYQELGVIDLATLKEACEQGNVRELAGFGKKSEEKILAAIAELSNKPERFPIAFVLPIAVEIEAQLKEMDSIHRFSRAGSLRRMRETVKDLDYIISTDDPEAVREQLLQLKHMGKTIASGDTKVSVELEYDYPISVDFRLVKDEAFATTLHHFTGSKEHNVKMRQLAKARGEKISEYGVENTETGDVKTFADESAFFKHFGLTYIPPEAREDQGEVELFKEAHALVTLEDIRADLHMHTTWSDGAHSIEEMAEAARQRGYEYIAITDHSKFLRVANGLSEERLKEQHAKIRELNERYDDFTIFTGIEMDILPDGTLDYEDPILAEVDFVIASIHSSFSQPREKIMDRLKTALVNHHVDLIAHPTGRLIGRREGYDVDVDMLIELAKETNTALELNANPNRLDLNSEALKKAQEQGVVMAINTDSHTKETFSYMEYGVGVARKGLIRPETVINTWPLERFCAFLRRHQPEGHHHHHH | soluble
MSLNKQDKKWRVLVVDDDADVLTNTVYTLMDLKVLGRELDITTLGSATAAIELLERERDFAVILLDVVMEKPHAGLSLVTMIRHDFNMQMSRIILRTGNPGYAPERDITLKLEIDDYILKQTAVRDRIITAVIVAIRAYDQLQRLARLKDAMQQIICCSNQLLTTDEIDQFANVCMQYVAPIFGKNAGGGLAYAGMTVNQGIVPLTVMSATSEHESLIEPLNGEGHHHHHH | not soluble
MSLNLPSFTLDIKLAGDGPAGVEKQIQQMQAMVDDRVDLIIVQPTDNAALSSPLQAANQAGIPVVAYDQYISGGHLSAFVTSNNYQAGFLDGEYMAHHFADDHTIQIILVEYPYVSSTIDRVDGFFDALNQYKQPYRILRSYQAVEPVQGRAVGQQILQDFPQPGSVDALFTINDGGGLAIVDELEKAGRHELFVATIDGDPNSVARIRKGSIIKIDSAQFCGPIGAEAMRAAYAILTAGKVHEHWLVPVFPITRQSVAHYPGWSGPIPEHYSNPCLTFLCREGHHHHHH | not soluble
MSLNPKILEKWMAEGQVTLPQVLVKNYATIGLNEVELVLLLQIQSFAAEAEFFPSMEMLTNRTTLPLEETIKTMDSLLKKGVIAIEQSQDNSRMISEQYNLAPLWGKLVALYENKEADSKHEKELEKQTSLYTLFEAEFGRPLSPMEAEMLSAWVEQDRTSPDLIKEALKEAVISQKLNFRYIDRILLNWSKQGVKTIEDAKRVAEEFHQNGRTSQAINQTEVKKSAGSIPLYDWLEKRKGEGHHHHHH | soluble
MSLNPNYLDFEQPIADLEAKIQELHTASMGPSINVDTEVRALENKLRLRTAQIFRNLSAWQISQLARHPRRPYTLDYISVVCDEFQELAGDRALADDKAIVGGLARIGHRPVMLIGHQKGRDNKERLMRNFGMPKPEGYRKALRLMKLAERFGLPLLTFIDTMGAWPGIDAEERNQSEAIATNLIEMAELKIPVICTVIGEGGSGGALAIGIGDRTLMLEYSTYSVITPEGCASILWKDAAKASDAAEQLNLTARRLKEFGLIDKVIREPIGGAHRNPQQMANRLKAVLLNELEALDKVPLVTLLNQRHKRLRTYGAYENHEGHHHHHH | not soluble
MSLNSAAQAQSSDPVVIGCPAPLTGIVAADGIEFQRGIQMAADEINAVGGILGRPIELVFADTQSKGVDVVIQSAQRLIDRDNASALIAGYNLENGTALHDVAADAGVIAMHANTVAVHDEMVKSDPDRYWGTFQYDPPETLYGGGFLKFLKDIEDNGEFSRPNNKIAIITGPGIYSVNIANAIRDGAGEYGYDVSLFETVAIPVSDWGPTLAKLRADPPAVIVVTHFYPQDQALFMNQFMTDPTNSLVYLQYGASLAAFRDIAGDNSVGVTYATVLGTLQDEMGDAFAKAYKERYGDLSSTASGCQTYSALYAYSIAAALAGGPGAPYDDVQNKAVADRLRSLIFRGPVGTMRFHADTQSAWSYPTETNDPSLGMPHIFSQIFDKAEDGVLIAPAPYKKAGFKMPPWMKGEGHHHHHH | soluble
MSLNSLKHPKVRDTRDMWDIREELTSEQKKQEKLLAEINKYDKFVNSYSQTKEMTKETALNNTLQSLKKTAGMTDITGSGIVITISPLFSESLTGEPIENPPPDLLKKLINELNSYGAEHISINERRVVNHTVIRDINGTTKIDGYALDDYPLTVKVLAKDPDMLHSRVKGSGLEDLFASENLALKAGKSESKLTLKAYDRPLDVQQLKLLKDEGHHHHHH | soluble
MSLNTAMAINKPKKVNKVMNYKSCFDIIGPIMIGPSSSHTAGALAIGLAARKLFGGTPEKIVIKYYESFADTHKGHGTDFAIIGGILGLAADDANVTQSIELAEEQGIEIQFLEMSEESPVKHANTACVTLSDATHEIHLTGISVGGGTIEVKYIELDGFNVQLHGPLPILLVINQEEQAMQAFKDTLQKNNIQVNAVSRYVEGNQILFIFDLDSAPISSVKEQLFSLDDTSKIILLEGGSHHHHHH | soluble
MSLNVLIIGAGAVGLCLAAKLSNVADVFAVTRERNAKIIRESGFKMTGIWGEGTFNFEASENVPERDFDYIIISSKGLATKSICEQFKDVINGKNVISMQNGVGNEEIILRYTDKVIGGTIITGFEWKGDAKVHVSVEGGPMTVGRFPNGTDKEVTDFVKLIKSSGIPVNETENIQGAIWSKTIYNCALNPLGAVMNVPYGELSNEHSWNIIKNIVSEIFEITSKKGVILPWKTSEEYLKYLKEFQLPNTAAHHSSMLQDISKGNITEIDFLNGAVVTIAKEFGIKTPYNKFITEQIKFLENLKSKKEGHHHHHH | soluble
MSLNVLIVDDEANIRKTLTVFMESRGHRVKAVSNSRDACAEAEQQVFDLAFVDIRLGIESGLDLERSLLNACPWIKIVIITAYASIETAVEAMKRGASDYLAKPFTPDQLESITARLAEVCAMEMRIASLQEDLNRMHPEVYFTSRYPSMQRAIELSRQVALSDALVLLRGPSGTGKTVLARSIHNWSQRKEEPFGVVSCPSLSTELLESELFGHVKGSFPGAVRDKPGRVTLCEGGSLFLDEIGDLPLSIQAKLLRFIQDREYERIGDHQTRKADVRIIAATNTNLDLAVREGEFREDLFYRLNGIQIDLPTLAERPNDVEQLALNMLQFFAAQNLKNFDGFTEEARTALRTYSWPGNIRELRNVMERAVILGKNGQIGIELLPDSIVAKTHPVTEGHHHHHH | soluble

Reference: the DeepSol protein solubility set
